Patent US20020004226A1

Biological target: soluble LDL receptor from the supernatant of IFN-gamma-treated human WISH cells (antiviral factor) (human) (UniProt P01130)
Experiment: immunoaffinity chromatography on agarose-coupled C7; antiviral activity recovered in the pH 11 eluate (el.2 and el.3) relative to the load

Chain of UniProt P01130 (P01130 25-313 limits assumed): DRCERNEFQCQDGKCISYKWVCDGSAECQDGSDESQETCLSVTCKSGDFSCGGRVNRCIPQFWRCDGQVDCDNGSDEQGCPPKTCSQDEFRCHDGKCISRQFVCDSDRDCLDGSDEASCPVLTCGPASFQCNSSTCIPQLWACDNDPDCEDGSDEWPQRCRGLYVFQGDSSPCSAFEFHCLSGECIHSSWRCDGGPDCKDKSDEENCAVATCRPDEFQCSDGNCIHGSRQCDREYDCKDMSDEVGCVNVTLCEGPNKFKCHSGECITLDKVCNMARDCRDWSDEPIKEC

monoclonal antibody C7 (hybridoma C7, ATCC CRL 1691)
recovery: 32%
